Experimental data published in patent publication US7838495B2, “Compositions and methods of use of EPB1, and ErbB3 binding protein” (University of Maryland, Baltimore, priority 2007, dated 2010).

Tested on: androgen-responsive genes
Test: Microarray gene expression profiling of LNCaP cells stably transfected with EBP1
Type: cell-based, human
Settings: EPB1-overexpressing LNCaP cells vs controls
Experimental: Microarray Analysis: First and second strand cDNA were synthesized from 5-15 μg of total RNA at Genome Explorations (Nashville, Tenn.) using the SuperScript Double-Stranded cDNA Synthesis Kit (Gibco Life Technologies, Gaithersburg, Md.) and an oligo-dT24-T7 (5′-GGCCAGTGAATTGTAATACGACTCACTATAGGGAGGCGG-3′) (SEQ ID NO: 3) primer according to the manufacturer's instructions. cRNA was synthesized labeled with biotinylated UTP and CTP by in vitro transcription using the T7 promoter-coupled, double-stranded cDNA as template and the T7 RNA Transcript Labeling Kit (ENZO Diagnostics Inc., Farmingdale, N.Y.). The fragmented cRNA was hybridized for U133A oligonucleotide arrays (Affymetrix, Santa Clara, Calif.) containing ˜33,000 full-length annotated genes, together with additional probe sets designed to represent EST sequences. The arrays were then stained with phycoerythrein-conjugated streptavidin (Molecular Probes, Eugene, Oreg.), and the fluorescence intensities were determined using a laser confocal scanner (Hewlett-Packard, Palo Alto, Calif.). The scanned images were analyzed using Microarray software (Affymetrix). Sample loading and variations in staining were standardized by scaling the average of the fluorescent intensities of all genes on an array to constant target intensity for all arrays used. The signal intensity for each gene was calculated as the average intensity difference, represented by [E(PM−MM)/(number of probe pairs)], where PM and MM denote perfect-match and mismatch probes. Data analysis was conducted using Microarray Suite 5.0 (Affymetrix) following user guidelines. Only genes with a minimum expression level of 500 were included in this analysis. […] AR-regulated genes include the Androgen Receptor (AR), PSA (kallikrein 3), Kallikrein 2, POV-1, TMPRSS2, and prostate-derived factor.
Ectopic expression of EPB1 downregulates androgen-regulated genes: Gene expression profiling of LNCaP cells stably transfected with EBP1 was used to determine the range of androgen-dependent genes affected by EPB1 overexpression. These cells overexpress EPB1 protein between two- and three-fold (Zhang et al., 2002, Repression of Androgen Receptor Mediated Transcription by the ErbB-3 Binding Protein EPB1, Oncogene, 21: 5609-5618). Changes in gene expression were measured using microarray analysis of 33,000 transcripts on the Affymetrix U133A chip. To compile a list of differentially regulated genes, only those genes that were activated or repressed at least 3-fold (p<0.05, 500 minimum expression units) were included. […] Forty-one genes were induced and 126 were repressed. Seventy-two of these genes have HUGO approved names. […] These include the Androgen Receptor (3.7 fold decrease), PSA (3.7 fold decrease) as previously reported (Zhang et al., 2002, Repression of Androgen Receptor Mediated Transcription by the ErbB-3 Binding Protein EPB1, Oncogene, 21: 5609-5618), Kallikrein 2 (3.2 fold decrease), POV-1 (5.0 fold decrease), TMPRSS2 (3.2 fold decrease), and prostate-derived factor (3.2 fold decrease). The Kallikrein 2 gene is regulated by AR, predominantly expressed in prostate tissue, secreted by LNCaP cells, and 78% homologous to PSA. […] The TMPRSS2 gene is androgen-regulated and also highly expressed in prostate and prostate cancer (Afar et al., 2001, Catalytic Cleavage of the Androgen-Regulated TMPRSS2 Protease Results in its Secretion by Prostate and Prostate Cancer Epithelia, Cancer Res., 61:1686-1692).

B1: EBP1: ErbB3 binding protein (SEQ ID NO: 2), AR corepressor, here ectopically expressed in cancer cells by stable transfection of an expression plasmid (protein, listed as Homo sapiens)
chain: MSGEDEQQEQTIAEDLVVTKYKMGGDIANRVLRSLVEASSSGVSVLSLCEKGDAMIMEETGKIFKKEKEMKKGIAFPTSISVNNCVCHFSPLKSDQDYILKEGDLVKIDLGVHVDGFIANVAHTFVVDVAQGTQVTGRKADVIKAAHLCAEAALRLVKPGNQNTQVTEAWNKVAHSFNCTPIEGMLSHQLKQHVIDGEKTIIQNPTDQQKKDHEKAEFEVHEVYAVDVLVSSGEGKAKDAGQRTTIYKRDPSKQYGLKMKTSRAFFSEVERRFDAMPFTLRAFEDEKKARMGVVECAKHELLQPFNVLYEKEGEFVAQFKFTVLLMPNGPMRITSGPFEPDLYKSEMEVQDAELKALLQSSASRKTQKKKKKKASKTAENATSGETLEENEAGD
modifications: FLAG tag
Androgen Receptor expression, fold decrease: 3.7 fold | Kallikrein 2 expression, fold decrease: 3.2 fold | POV-1 expression, fold decrease: 5.0 fold | PSA expression, fold decrease: 3.7 fold | TMPRSS2 expression, fold decrease: 3.2 fold | prostate-derived factor expression, fold decrease: 3.2 fold
